Measured values reported in patent publication US20250002575A1 (Genentech, published 2025).

B1: rat IgG2a anti-human IL-33 clone 15.21C7 (antibody, V domains shown)
VH: EVQLVESGGGLVQPGTSLKLSCVASGFTFSDFWMSWVRQTPGKTMEWIADIKNDGSHTKYAPSLQNRFTISRDNAKNTLYLEVTDVRSEDTATYYCTRVGGTYTAYYWGHGVMVTVSS
VL: DIQMTQTPSSMPASLGERVTLSCRTSQGINTYLNWYQQKPDGTITPLIHYTSNLESGVPSRFSGSGFGTDYFLTISSLEPEDFAMYFCQQYASSPWTFGGGTKLELKK
notes: also called rat anti-reduced hIL-33 15.21C7 IgG2a
B2: rat/human chimeric anti-hIL-33 3F10 MAb (antibody, human IgG1, kappa, V domains shown)
VH: QVQLEESGPGLVQPSQTLSLTCTVSGFSLTSQNVHWVRQPPGKGLEWMGRMRFNGDTSYNSTLKSRLSISRDTSKNQVFLRLNSLQTDDTGTYYCARQRDNYGSYYFDDWGQGIMVTVSS
VL: DTVLTQSPALAVSPGERVTISCRASESVLTLLNWYQQKPGQHPKLLIYLASHLESGVPARFSGRGSGTDFTLTIDPVEADDTASYYCQQSWIDPWTFGGGTTLELKR
notes: Rat variable domains on human IgG1/kappa constant regions; also called clone 3F10; capture MAb

What was measured:
[1] = molecular target: T1, reduced recombinant human IL-33 (His-tagged, amino acids 112-270) (human, UniProt O95760 112-270); test: SPR (Biacore 8K), antibody captured on Protein A chip, reduced hIL-33 as analyte, multi-cycle kinetics, 25 C
T1 construct: range 112-270; Expressed in E. coli; kept in the reduced state (all four cysteines free) with TCEP; also called reduced hIL-33; hIL-33
T1 sequence: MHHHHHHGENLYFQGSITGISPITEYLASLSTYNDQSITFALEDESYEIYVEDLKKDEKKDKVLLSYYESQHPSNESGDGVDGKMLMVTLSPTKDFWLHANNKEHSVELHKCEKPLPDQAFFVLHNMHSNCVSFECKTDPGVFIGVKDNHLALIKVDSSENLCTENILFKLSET
Method: (§1) A Series S Protein A sensor chip (Cytiva, Marlborough, MA, USA) was used to capture recombinant chimeric human IgG versions of anti-hIL-33 Abs using a BIACORE® 8 k instrument (Cytiva, Marlborough, MA, USA). Antibody binding to human histidine-tagged hIL-33 (Genentech, South San Francisco, CA, USA) was measured using multi-cycle kinetics. Sensorgrams were recorded using an injection time of 2 minutes with a flow rate of 30 μL/min, at 25° C. or 37° C., and with a running buffer of 10 mM N-2-hydroxyethylpiperazine-N′-2-ethanesulfonic acid (HEPES), pH 7.4, 150 mM sodium chloride (NaCl), 3 mM ethylenediaminetetraacetic acid (EDTA), and 0.005% TWEEN® 20. After injection, dissociation of hIL-33 from the antibody was monitored for 10 minutes in running buffer. The surface was regenerated between binding cycles with a 30 μL injection of 10 mM Glycine hydrochloric acid (HCl) pH 1.5. After subtraction of a blank containing running buffer only, sensorgrams were analyzed using a 1:1 Langmuir binding model with software supplied by the manufacturer to calculate the kinetics and binding constants.

[2] = molecular target: T1, reduced recombinant human IL-33 …; test: SPR (Biacore), antibody captured, reduced hIL-33 as analyte
Method: as §1

Binder | Kd [1] | koff [1] | kon [1] | Kd [2]
B1 | 0.291 nM | 0.000146 s⁻¹ | 501000 M⁻¹ s⁻¹ | 0.338 nM
B2 | 0.777 nM | 0.000243 s⁻¹ | 312000 M⁻¹ s⁻¹ | 0.487 nM
